Experimental data taken from patent US20240366756A1, “COMBINATIONS AND USES THEREOF” (Incyte Corporation, priority 2011, published 2024).
Marks after values point to notes of the source that are not given here.

System: RAMOS human Burkitt's lymphoma cells
Experiment: Human Non-Hodgkin RAMOS tumor in SCID mice, survival model
Format: in vivo
Conditions: for Median Survival (Days Post-Inoculation): 3 mg/kg i.v., treatment related deaths excluded; for Survival, pairwise comparison (Holm-Sidak) vs. Group 2: Group 2 = Bendamustine (13 mg/kg); for Survival, pairwise comparison (Holm-Sidak) vs. Group 3: Group 3 = Bendamustine (16 mg/kg); for Survival, pairwise comparison (Holm-Sidak) vs. Group 5: Group 5 = MOR00208/Bendamustine (3/13 mg/kg); for Survival, pairwise comparison (Holm-Sidak) vs. Group 6: Group 6 = MOR00208/Bendamustine (3/16 mg/kg); for Survival, pairwise comparison (Holm-Sidak) vs. Group 1: Group 1 = MOR00208 (3 mg/kg)
Procedure: Cyclophosphamide (Baxter, Lot. No. 1A548C); Vehicle Control: 0.9% sodium chloride, 25 mg/ml mannitol, pH 6.5-6.8 (adjusted with 0.01 M NaOH); SCID Mice (University of Adelaide, Waite Campus, Urrbaraie, SA, Australia, Strain C.B.-17-Igh-1^b-Prkdc^scid); RAMOS human Burkitt's lymphoma cells (ATCC number CRL-1596); Ref_mAb_33_IgG_Xen (10 mg/mL in PBS, referred to as Ref_mAb_33); Bendamustine (Mundipharma, Lot No. 83889).
SCID mice were pre-treated with Cyclophosphamide (75 mg/kg, i.p., twice daily) for two days prior to RAMOS cell inoculation (Day −2 and −1). On the day of inoculation (Day 0), the mice were separated into seven groups of ten mice each, and inoculated with 1×10^6 RAMOS cells each intravenously into the tail vein. The planned dosing regimen for each group is shown in Table 5 and commenced on Day 3. The study duration was 60 days.
From the raw data shown in Table 6, both the median survival in days and median increase in lifespan were calculated. All treatment related deaths were excluded in the calculations.
Median % Increased Lifespan (ILS) is calculated as follows: […]
The classification of the MOR000208/Bendamustine combination therapy (combo) effect was evaluated by comparing the ILS of the combination with the added ILS of the respective monotherapies:
Synergy/Potentiation*: ILSCombo>ILSMOR00208 3 mg/kg+ILSBendamustine. Synergistic effects are classified as potentiation if at least one of the monotherapies has no effect. Additivity: ILSCombo=ILSMOR00208 3 mg/kg+ILSBendamustine. Antagonism: ILSCombo<ILSMOR00208 3 mg/kg+ILSBendamustine.
In addition to an analysis of the data for purposes of identifying synergy, the following statistical analysis was also completed. Statistical analyses were carried out using the median values. Any animal that died unexpectedly or was culled prior to Day 17 of the study in the Test Article treatment groups was excluded from survival analysis calculation. The death/culling of these animals was attributed to compound toxicity rather than disease progression as they occurred well in advance of the first deaths in the Vehicle Control animals. A survival curve was created using the product limit of Kaplan and Meier, and survival curves compared using the log-rank (Mantel-Cox) test. Where significant differences were found, All Pairwise Multiple Comparison (Holm-Sidak Test) was performed. Comparison was done between all groups. In addition the comparison of the following groups were summarised in separate figures for each test article: Vehicle Control/Ref_mAb (group 10) against Bendamustine groups (Groups 2, 3 and 4) and Vehicle Control/Ref_mAb (group 10) against Combination groups (Groups 5 and 6) or respective MOR00208 monotherapy group (group 1). A p value of less than 0.05 was considered significant.

[1] = Table 8, listed as Bendamustine = 13 mg/kg
[2] = Table 9, listed as combination = 3/13 mg/kg
[3] = Table 10, listed as combination = 3/16 mg/kg
[4] = untitled repeat of Table 8, listed as Bendamustine = 13 mg/kg

Molecule: MOR00208: anti-CD19 antibody; variable domains shown in FIG. 3, heavy and light chain Fc regions in FIG. 4
- Median Survival (Days Post-Inoculation): 32^a Days Post-Inoculation
- Median % Increase in Lifespan (ILS) (3 mg/kg, vs. vehicle control/Ref_mAb_33): 25.5%
- Survival, pairwise comparison (Holm-Sidak) vs. Group 2 (Table 8): ***Yes (***Yes: There is a statistically significant difference (p < 0.001).)
- Survival, pairwise comparison (Holm-Sidak) vs. Group 3 [1]: ***Yes (***Yes: There is a statistically significant difference (p < 0.001).)
- Survival, pairwise comparison (Holm-Sidak) vs. Group 2 [2]: ***Yes (***Yes: There is a statistically significant difference (p < 0.001).)
- Survival, pairwise comparison (Holm-Sidak) vs. Group 5 (Table 9): *Yes (*Yes: There is a statistically significant difference (p < 0.05).)
- Survival, pairwise comparison (Holm-Sidak) vs. Group 3 [3]: ***Yes (***Yes: There is a statistically significant difference (p < 0.001).)
- Survival, pairwise comparison (Holm-Sidak) vs. Group 6 (Table 10): ***Yes (***Yes: There is a statistically significant difference (p < 0.001).)
- Survival, pairwise comparison (Holm-Sidak) vs. Group 2 (untitled repeat of Table 8): ***Yes (***Yes: There is a statistically significant difference (p < 0.001).)
- Survival, pairwise comparison (Holm-Sidak) vs. Group 3 [4]: ***Yes (***Yes: There is a statistically significant difference (p < 0.001).)

B1: RefmAb33: antibody specific for RSV, used as isotype control, shares the same Fc region as MOR00208 (SEQ ID NO: 8, 9) (antibody)
heavy: QVTLRESGPALVKPTQTLTLTCTFSGFSLSTAGMSVGWIRQPPGKALEWLADIWWDDKKHYNPSLKDRLTISKDTSKNQVVLKVTNMDPADTATYYCARDMIFNFYFDVWGQGTTVTVSSASTKGPSVFPLAPSSKSTSGGTAALGCLVKDYFPEPVTVSWNSGALTSGVHTFPAVLQSSGLYSLSSVVTVPSSSLGTQTYICNVNHKPSNTKVDKKVEPKSCDKTHTCPPCPAPELLGGPDVFLFPPKPKDTLMISRTPEVTCVVVDVSHEDPEVQFNWYVDGVEVHNAKTKPREEQFNSTFRVVSVLTVVHQDWLNGKEYKCKVSNKALPAPEEKTISKTKGQPREPQVYTLPPSREEMTKNQVSLTCLVKGFYPSDIAVEWESNGQPENNYKTTPPMLDSDGSFFLYSKLTVDKSRWQQGNVFSCSVMHEALHNHYTQKSLSLSPGK
light: DIQMTQSPSTLSASVGDRVTITCSASSRVGYMHWYQQKPGKAPKLLIYDTSKLASGVPSRFSGSGSGTEFTLTISSLQPDDFATYYCFQGSGYPFTFGGGTKVEIKRTVAAPSVFIFPPSDEQLKSGTASVVCLLNNFYPREAKVQWKVDNALQSGNSQESVTEQDSKDSTYSLSSTLTLSKADYEKHKVYACEVTHQGLSSPVTKSFNRGEC
modifications: Heavy chain RefMab33; Light chain RefMab33
- Median Survival (Days Post-Inoculation): 25.5 Days Post-Inoculation
- Survival, pairwise comparison (Holm-Sidak) vs. Group 1 (Table 8): ***Yes (***Yes: There is a statistically significant difference (p < 0.001).)
- Survival, pairwise comparison (Holm-Sidak) vs. Group 2 (Table 8): *Yes (*Yes: There is a statistically significant difference (p < 0.05).)
- Survival, pairwise comparison (Holm-Sidak) vs. Group 3 [1]: No (No: There is no statistically significant difference (p ≥ 0.05).)
- Survival, pairwise comparison (Holm-Sidak) vs. Group 1 (Table 9): ***Yes (***Yes: There is a statistically significant difference (p < 0.001).)
- Survival, pairwise comparison (Holm-Sidak) vs. Group 2 [2]: *Yes (*Yes: There is a statistically significant difference (p < 0.05).)
- Survival, pairwise comparison (Holm-Sidak) vs. Group 5 (Table 9): ***Yes (***Yes: There is a statistically significant difference (p < 0.001).)
- Survival, pairwise comparison (Holm-Sidak) vs. Group 1 (Table 10): ***Yes (***Yes: There is a statistically significant difference (p < 0.001).)
- Survival, pairwise comparison (Holm-Sidak) vs. Group 3 [3]: No (No: There is no statistically significant difference (p ≥ 0.05).)
- Survival, pairwise comparison (Holm-Sidak) vs. Group 6 (Table 10): ***Yes (***Yes: There is a statistically significant difference (p < 0.001).)
- Survival, pairwise comparison (Holm-Sidak) vs. Group 1 (untitled repeat of Table 8): ***Yes (***Yes: There is a statistically significant difference (p < 0.001).)
- Survival, pairwise comparison (Holm-Sidak) vs. Group 2 (untitled repeat of Table 8): *Yes (*Yes: There is a statistically significant difference (p < 0.05).)
- Survival, pairwise comparison (Holm-Sidak) vs. Group 3 [4]: No (No: There is no statistically significant difference (p ≥ 0.05).)
